Legend:
Experiment in all cases: flow cytometry on cells; 2D3 cells with a VHH-CAR incubated with biotinylated CS1 antigen, then PE-coupled streptavidin
Details in all cases: one partner purified
[1] = target: T1, VHH-53 CAR on 2D3 reporter T cells (llama | human)
T1 construct: as the VHH of m10; cloned by PstI/BstEII from pHEN6c; hinge region derived from human IgG4; transmembrane and intracellular co-stimulatory domain derived from human CD28; also called 2D3-53; VHH-CAR with VHH-53; source: 2D3 reporter T cells, lentivirally transduced, sorted, on cells

[2] = target: T2, VHH-73 CAR on 2D3 reporter T cells (llama | human)
T2 construct: as the VHH of m17; cloned by PstI/BstEII from pHEN6c; hinge region derived from human IgG4; transmembrane and intracellular co-stimulatory domain derived from human CD28; also called 2D3-73; VHH-CAR with VHH-73; source: 2D3 reporter T cells, lentivirally transduced, sorted, on cells

[3] = target: T3, VHH-29 CAR on 2D3 reporter T cells (llama | human)
T3 construct: as the VHH of m7; cloned by PstI/BstEII from pHEN6c; hinge region derived from human IgG4; transmembrane and intracellular co-stimulatory domain derived from human CD28; also called 2D3-29; VHH-CAR with VHH-29; source: 2D3 reporter T cells, lentivirally transduced, sorted, on cells

[4] = target: T4, VHH-6 CAR on 2D3 reporter T cells (llama | human)
T4 construct: as the VHH of m2; cloned by PstI/BstEII from pHEN6c; hinge region derived from human IgG4; transmembrane and intracellular co-stimulatory domain derived from human CD28; also called 2D3-6; VHH-CAR with VHH-6; source: 2D3 reporter T cells, lentivirally transduced, sorted, on cells

[5] = target: T5, VHH-57 CAR on 2D3 reporter T cells (llama | human)
T5 construct: as the VHH of m12; cloned by PstI/BstEII from pHEN6c; hinge region derived from human IgG4; transmembrane and intracellular co-stimulatory domain derived from human CD28; also called 2D3-57; VHH-CAR with VHH-57; source: 2D3 reporter T cells, lentivirally transduced, sorted, on cells

[6] = target: T6, VHH-71 CAR on 2D3 reporter T cells (llama | human)
T6 construct: as the VHH of m16; cloned by PstI/BstEII from pHEN6c; hinge region derived from human IgG4; transmembrane and intracellular co-stimulatory domain derived from human CD28; also called 2D3-71; VHH-CAR with VHH-71; source: 2D3 reporter T cells, lentivirally transduced, sorted, on cells

[7] = target: T7, VHH-2 CAR on 2D3 reporter T cells (llama | human)
T7 construct: as the VHH of m1; cloned by PstI/BstEII from pHEN6c; hinge region derived from human IgG4; transmembrane and intracellular co-stimulatory domain derived from human CD28; also called 2D3-2; VHH-CAR with VHH-2; source: 2D3 reporter T cells, lentivirally transduced, sorted, on cells

[8] = target: T8, VHH-17 CAR on 2D3 reporter T cells (llama | human)
T8 construct: as the VHH of m3; cloned by PstI/BstEII from pHEN6c; hinge region derived from human IgG4; transmembrane and intracellular co-stimulatory domain derived from human CD28; also called 2D3-17; VHH-CAR with VHH-17; source: 2D3 reporter T cells, lentivirally transduced, sorted, on cells

[9] = target: T9, VHH-61 CAR on 2D3 reporter T cells (llama | human)
T9 construct: as the VHH of m13; cloned by PstI/BstEII from pHEN6c; hinge region derived from human IgG4; transmembrane and intracellular co-stimulatory domain derived from human CD28; also called 2D3-61; VHH-CAR with VHH-61; source: 2D3 reporter T cells, lentivirally transduced, sorted, on cells

[10] = target: T10, VHH-63 CAR on 2D3 reporter T cells (llama | human)
T10 construct: as the VHH of m14; cloned by PstI/BstEII from pHEN6c; hinge region derived from human IgG4; transmembrane and intracellular co-stimulatory domain derived from human CD28; also called 2D3-63; VHH-CAR with VHH-63; source: 2D3 reporter T cells, lentivirally transduced, sorted, on cells

Measured: binding result

T7 sequence (heavy, as listed by the source): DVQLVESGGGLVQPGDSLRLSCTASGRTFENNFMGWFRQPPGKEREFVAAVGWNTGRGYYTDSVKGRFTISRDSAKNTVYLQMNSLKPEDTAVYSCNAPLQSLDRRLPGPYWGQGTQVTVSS
T4 sequence (heavy, as listed by the source): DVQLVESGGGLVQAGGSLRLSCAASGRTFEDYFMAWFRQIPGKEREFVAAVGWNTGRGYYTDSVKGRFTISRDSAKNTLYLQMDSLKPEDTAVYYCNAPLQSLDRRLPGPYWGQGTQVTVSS
T8 sequence (heavy, as listed by the source): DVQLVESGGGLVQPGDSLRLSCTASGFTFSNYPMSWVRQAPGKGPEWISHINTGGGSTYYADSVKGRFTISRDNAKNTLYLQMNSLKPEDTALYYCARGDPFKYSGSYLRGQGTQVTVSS

B1: biotinylated recombinant human CS1 (CS1-(his)C-PEG4-biotin) (domain or fragment, UniProt Q9NQ25 23-226, looked up)
chain: SGPVKELVGSVGGAVTFPLKSKVKQVDSIVWTFNTTPLVTIQPEGGTIIVTQNRNRERVDFPDGGYSLKLSKLKKNDSGIYYVGIYSSSLQQPSTQEYVLHVYEHLSKPKVTMGLQSNKNGTCVTNLTCCMEHGEEDVIYTWKALGQAANESHNGSILPISWRWGESDMTFICVARNPVSRNFSSPILARKLCEGAADDPDSSM
modifications: PEG4-biotin
notes: CS1 (SLAMF7, CD319), human, the extracellular portion, biotinylated variant; also called biotinylated CS1 antigen; biotinylated CS1 protein; source: custom-produced by U Protein Express
binds: [1] | [2] | [3] | [4] | [5] | [6] | [7] | [8] | [9] | [10]

Reference: article PMC11077437, “Scrutiny of chimeric antigen receptor activation by the extracellular domain: experience with single domain antibodies targeting multiple myeloma cells highlights the need for case-by-case optimization” (Frontiers in Immunology, 2024)
